Test system: Escherichia coli TOP10
Assay: shrunken log2 fold change of peptide-encoding DNA abundance (4.5 h post-induction vs induction); higher = less antimicrobial activity (less host growth inhibition)
Conditions: time post-induction: 4.5 h; library: site-saturation at positions 5, 18, 19, 20
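Further: peptides expressed intracellularly from a pBAD plasmid library in pooled LB shake-flask culture, induced with 0.3% L-arabinose, DNA abundance read by NGS, three biological replicates, DESeq2 with apeglm shrinkage.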

Row | Sequence | shrunken log2 fold change
1 | RRIRMRPPRLPRPRPRPGCCPRP | 1.36
2 | RRIRSRPPRLPRPRPRPHLDPRP | -0.156
3 | RRIRDRPPRLPRPRPRPAVKPRP | 0.368
4 | RRIRFRPPRLPRPRPRPLGFPRP | -0.146
5 | RRIRDRPPRLPRPRPRPQPKPRP | 0.026
6 | RRIRQRPPRLPRPRPRPEHDPRP | -0.0684
7 | RRIRKRPPRLPRPRPRPQQVPRP | -0.0532
8 | RRIRERPPRLPRPRPRPPAFPRP | 0.331
9 | RRIRDRPPRLPRPRPRPFYPPRP | -0.109
10 | RRIRERPPRLPRPRPRPQAWPRP | 0.0278
11 | RRIRPRPPRLPRPRPRPAQTPRP | 0.177
12 | RRIRERPPRLPRPRPRPNQHPRP | -0.228
13 | RRIRVRPPRLPRPRPRPQMGPRP | 0.00696
14 | RRIRGRPPRLPRPRPRPGYDPRP | 0.371
15 | RRIRYRPPRLPRPRPRPESMPRP | -0.267
16 | RRIRHRPPRLPRPRPRPGAPPRP | 0.384
17 | RRIRKRPPRLPRPRPRPMAHPRP | -0.000911
18 | RRIRERPPRLPRPRPRPSQCPRP | -0.0684
19 | RRIRNRPPRLPRPRPRPSFRPRP | 0.0751
20 | RRIRARPPRLPRPRPRPAEAPRP | 0.161
21 | RRIRHRPPRLPRPRPRPDEPPRP | 0.197
22 | RRIRERPPRLPRPRPRPTMMPRP | -0.0968

Row | Sequence | shrunken log2 fold change
23 | RRIRLRPPRLPRPRPRPNKFPRP | -0.206
24 | RRIRRRPPRLPRPRPRPKPLPRP | 0.474
25 | RRIRPRPPRLPRPRPRPSMDPRP | -0.448
26 | RRIRDRPPRLPRPRPRPLNGPRP | -0.00962
27 | RRIRDRPPRLPRPRPRPAGMPRP | 0.411
28 | RRIRQRPPRLPRPRPRPSGYPRP | -0.0295
29 | RRIRGRPPRLPRPRPRPQRVPRP | 0.423
30 | RRIRPRPPRLPRPRPRPKYNPRP | -0.633
31 | RRIRSRPPRLPRPRPRPYWVPRP | -0.314
32 | RRIRERPPRLPRPRPRPANAPRP | -0.0563
33 | RRIRPRPPRLPRPRPRPFLYPRP | -0.138
34 | RRIRMRPPRLPRPRPRPMNWPRP | -0.117
35 | RRIRQRPPRLPRPRPRPEACPRP | -0.000521
36 | RRIRIRPPRLPRPRPRPCKAPRP | -0.181
37 | RRIRMRPPRLPRPRPRPLRHPRP | 1.98
38 | RRIRHRPPRLPRPRPRPVTKPRP | -0.055
39 | RRIRERPPRLPRPRPRPVVSPRP | -0.0681
40 | RRIRPRPPRLPRPRPRPHHVPRP | 0.0547
41 | RRIRNRPPRLPRPRPRPSAHPRP | -0.0549
42 | RRIRPRPPRLPRPRPRPFHQPRP | -0.216
43 | RRIRWRPPRLPRPRPRPICTPRP | 0.537
44 | RRIRTRPPRLPRPRPRPGHMPRP | -0.233

Row | Sequence | shrunken log2 fold change
45 | RRIRCRPPRLPRPRPRPCQYPRP | 0.0234
46 | RRIRPRPPRLPRPRPRPPPTPRP | 0.761
47 | RRIRFRPPRLPRPRPRPEDIPRP | 0.0107
48 | RRIRPRPPRLPRPRPRPLGEPRP | -0.155
49 | RRIRKRPPRLPRPRPRPENGPRP | 0.0267
50 | RRIRHRPPRLPRPRPRPATWPRP | 0.222
51 | RRIRYRPPRLPRPRPRPGYMPRP | -0.716
52 | RRIRVRPPRLPRPRPRPDQGPRP | 0.00375
53 | RRIRKRPPRLPRPRPRPWNHPRP | -0.172
54 | RRIRTRPPRLPRPRPRPSRFPRP | 0.244
55 | RRIRNRPPRLPRPRPRPADSPRP | -0.0169
56 | RRIRHRPPRLPRPRPRPTWKPRP | -0.011
57 | RRIRNRPPRLPRPRPRPACVPRP | 0.0235
58 | RRIRERPPRLPRPRPRPKLCPRP | 0.000831
59 | RRIRFRPPRLPRPRPRPGTNPRP | -0.254
60 | RRIRCRPPRLPRPRPRPSNIPRP | -0.319
61 | RRIRERPPRLPRPRPRPSPTPRP | 0.0865
62 | RRIRMRPPRLPRPRPRPKTCPRP | 0.12
63 | RRIRLRPPRLPRPRPRPQWMPRP | -0.0896
64 | RRIRRRPPRLPRPRPRPHSEPRP | 0.0888
65 | RRIRDRPPRLPRPRPRPFTHPRP | -0.0968
66 | RRIRARPPRLPRPRPRPDFAPRP | 0.533

Row | Sequence | shrunken log2 fold change
67 | RRIRTRPPRLPRPRPRPRIIPRP | -0.215
68 | RRIRERPPRLPRPRPRPQYKPRP | -0.675
69 | RRIRARPPRLPRPRPRPFAEPRP | 0.762
70 | RRIRFRPPRLPRPRPRPGHFPRP | -0.24
71 | RRIRVRPPRLPRPRPRPWKSPRP | 0.0332
72 | RRIRTRPPRLPRPRPRPHHSPRP | -0.133
73 | RRIRQRPPRLPRPRPRPPFRPRP | 0.14
74 | RRIRRRPPRLPRPRPRPKRVPRP | 0.298
75 | RRIRWRPPRLPRPRPRPDSNPRP | -0.189
76 | RRIRMRPPRLPRPRPRPKSMPRP | 0.0732
77 | RRIRVRPPRLPRPRPRPTRVPRP | 0.0936
78 | RRIRPRPPRLPRPRPRPKIGPRP | 0.0118
79 | RRIRFRPPRLPRPRPRPGWFPRP | 0.237
80 | RRIRTRPPRLPRPRPRPHGEPRP | 0.16
81 | RRIRYRPPRLPRPRPRPSTSPRP | 1.42
82 | RRIRQRPPRLPRPRPRPTEGPRP | -0.0332
83 | RRIRFRPPRLPRPRPRPEGDPRP | 0.0402
84 | RRIRNRPPRLPRPRPRPLEGPRP | 0.033
85 | RRIRERPPRLPRPRPRPTQPPRP | 0.254
86 | RRIRVRPPRLPRPRPRPHKHPRP | -0.483
87 | RRIRPRPPRLPRPRPRPTASPRP | 0.259
88 | RRIRTRPPRLPRPRPRPDVMPRP | -0.00136

Row | Sequence | shrunken log2 fold change
89 | RRIRIRPPRLPRPRPRPHKLPRP | -0.552
90 | RRIRMRPPRLPRPRPRPAGKPRP | 0.461
91 | RRIRDRPPRLPRPRPRPASHPRP | 0.0378
92 | RRIRIRPPRLPRPRPRPGLEPRP | -0.0336
93 | RRIRPRPPRLPRPRPRPPVTPRP | 0.147
94 | RRIRERPPRLPRPRPRPANQPRP | 0.0465
95 | RRIRFRPPRLPRPRPRPWTTPRP | -0.0381
96 | RRIRIRPPRLPRPRPRPAVDPRP | -0.0902
97 | RRIRGRPPRLPRPRPRPNRRPRP | 0.332
98 | RRIRVRPPRLPRPRPRPYQGPRP | -0.236
99 | RRIRLRPPRLPRPRPRPCILPRP | -0.411
100 | RRIRTRPPRLPRPRPRPMQSPRP | -0.349
101 | RRIRGRPPRLPRPRPRPVFVPRP | 0.324
102 | RRIRLRPPRLPRPRPRPKSCPRP | 0.0755
103 | RRIRHRPPRLPRPRPRPRMHPRP | -0.0289
104 | RRIRHRPPRLPRPRPRPNIVPRP | -0.0257
105 | RRIRHRPPRLPRPRPRPLKWPRP | -0.0708
106 | RRIRMRPPRLPRPRPRPNCIPRP | 0.11
107 | RRIRLRPPRLPRPRPRPFSTPRP | 0.0382
108 | RRIRCRPPRLPRPRPRPDEEPRP | 0.123
109 | RRIRMRPPRLPRPRPRPDPCPRP | 0.0496
